Experimental findings from publication PMC2796240 are described below.

The data set has as its system CCCCC(=O)Oc1ccc([N+](=O)[O-])cc1. Put plainly: purified protein. The conditions noted are these: pH 7.5, 14.5 mM Tris-HCl, 0.75% glycerol, 0.5% Triton X, 1.1 µM enzyme.

For orientation: Km means the concentration of substrate that gives half-maximal velocity. One may read the kcat/Km as the second-order rate constant that governs catalysis at low substrate concentration. Turning to “F. solani cutinase (Fusarium vanettenii)”, the Km stood at 1.48 ± 0.56 µM and the specificity constant (kcat/Km) was 10200 ± 6670 M⁻¹ s⁻¹.
